# The domain aggregation screens of Martell et al. (2025)
# Test: soluble fraction after stress (log2 fold change); higher = more stays soluble; pooled small domains, quantitative proteomics
# Conditions: stress: pH 4
# How it was run: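 Aggregation propensity is read out as the fold change in how much of each domain remains soluble after acid stress. The custom small-domain libraries were pooled, held at pH 4 and analysed with high-throughput quantitative proteomics. On the log2 scale used, higher values mean more of the domain stayed soluble.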
row,Sequence,soluble fraction (log2)
1,HMNKNQIGTNAGIVWKLLSDNVHWEYDKLKHASGLSDRDLNAAIGWLAREDKIDFDIDEQHDRLFL,-0.255
2,HMQEKQIIDGREFYIHQVERGITLYSIAKQYNVKVADIQAENPFLEAGLQPGQTLKIPLDKVETVQEIK,-0.17
3,HMTKVMVPNVVGMSRGEAEEALRGVKLQVDLKREVSDDPEVKPEEVLRQTPDAQTSVPQGSVVTLYVADKP,-0.407
4,HMKHTQTDEGELLSTLRTLFPNSSSSSLRKMLTQGRILVNQEVVHRAKHALQAGDEIEVLARQ,0.0825
5,HMSDSGLPLPRFVSLGDDRVNARAGPGFRFPINWVYLRKNFPVEVIDEFGHWRRIKDIDGIEGWIHLSML,-0.734
6,HMKKILLGDVNLDGKVDVNDVTLLQRYIAGETEVITSKDALTATNFNKDGNIDVLDVTDIQTFIANSE,0.00934
7,HMKLGYTVHGNVVTVKAVANGISLYNTIGQKVAESTDGQTVKAPAHGVYILSVQGKSGSRETAKIVI,0.114
8,HMIVMPELRGKDLKEAERLLSSHNLRYELVDSVYDKSLAPGVVVEMVPQSGNTVKPGRIIFLSINA,-0.272
9,HMQNKYIIKQGNSGELVEVLQELLNLKQDGVFGPQTKKAVIAFQQKHKLVADGIVGPMSWRKLNFNPEELF,-0.282
10,HMKFPIITAKQDSDGKFYWAQTTDKGKTYTFILDGDGKKFPIGGTMPDVKINENGYWSVNGSSTGVLANDL,-0.295
11,HMVPISGADFEKLSDYILQKAGAGSIQVKELLAGLKGMHEKNLWKAIDYLLAEEKIRIDKGGNISVK,-0.249
12,HMPALPGNELLRNLMLEHGLKQVDLAEIGSQGVVSEILSGKRRINRRHADLLARRFSLPAELFSR,-0.0865
13,HMQSAKLSYSDFMQKVNAGDVVSVKIQGPKISGVTTGGGKFMTYAPEDPTLVSTLMQKKVEVMAEP,0.173
14,HMKIGIYPGTFDPITHGHTDIIRRSLRVFDKVVVAVAPNPSKHPLFTLTERLEMIRIVMKELEHVEVT,0.117
15,HMQILLASHAELAKGILSAVELIAGTQQNLKAYSAYTEAVDVHFKDQMLQDLNKMDPEDEVIL,0.0244
16,HMSATPQRMTIIDALDSSGKNLSAYELLDLLNDKGQLFNISTIYRVLDFWIEMGIVHKINSSNTYL,0.132
17,HMEETLRELAVKISKQVIKTGRNSVLEPMNPYERRIIHAVISEIEGVSSKSVGEDPNRKVVIMSTNP,-1.07
18,HMKELAADFSRRIINARTSKGWSQADLGQRMAETINVIKSAESGKPPTDAVVKKFETVLGVILM,0.22
19,HMRDLVTYVVQVNGKLRGKLEVSPSTDDNSLKTMALELENVQRALEGLSVKKVIVIPGKMVSIAAG,-0.355
20,HMQNREQNILDGKSILDKELKRVGLLNQSAAIMAQEMKFNSQDDLFAALGSGATRIGQIINHLQKQS,0.0793
21,HMVSPEVEMLRAAVETMSERQKQVYELHYLRGFNVKETAAILGMSSPTVTAHKKRIMEIIKKFFE,-0.88
22,HMSASAIYVRPKDVKEPEEVADYLSGVLELDREKLYKKITDKSQWIALIERKVDNDIAFDIRNKKFKGIEI,-0.784
23,HMNILKAPMPGLILDVIVKESDLVKKGDPVIILEAMKMENILSSPVDGIVKEIKVNPQQTVEKNNTLIKFE,-0.469
24,HMYTGSEGMAGLEGRAVTEVGPEAGTVLVKGEYWQARSDEPIATDRKIRVIRLEGLRLRVAEIHPEG,0.169
25,HMGVSLREVPVAEHGDWIGRPIKELGIPAEVLIVLVRRADGTTVVPKGGTVLQQGDMLVVNEWEE,-1.25

row,Sequence,soluble fraction (log2)
1,HMVKIIHYEVYANRGDGWKLVDQFSADQRQEAVNLAKEIETEDQVAVKIIREIFDVQDNTYQESVEYIG,-0.804
2,HMEDEAVMQLPLSELKGLSPELLAILNGAGYEKLKDVLDLEREDIERIPGMTPERNEQLVAFLAELTE,-1.98
3,HMDENTEQESQTVVVPDVTGKSLSEAASILREAGLDYLAEQTGTVVTKQMPLPDAEVLINTTVLLYTDSE,-0.456
4,HMDSINIDEETAKLGPNAPQIIDGIKKWGQGLVAKGVWSDEDFDEFKVFAATSSGINALNKIRKYY,-0.138
5,HMNSILFAITKEGGVVYGGKPVGVNGVRPLVRRLLQSEEMPVILQVDEKADAGLVIRVIDESKLGGASKV,-0.196
6,HMKININEASRYELMTIGGLDAGRADMLMQYRQKREISSADELKGINGFASYDTAKLQKSFEISP,0.00275
7,HMTDTIALRSVIAESGLKYKALAEIMGLSPYTLQMKIDNESEFKASEIDALANALGMDMQQRDSIFF,-0.406
8,HMLLRVGGLVKDGSVRTDNDLGIKFIIEDNLAEVSVLYNGILPDLFREGQGVIAEGKFIDNIFIANEIVA,-1.13
9,HMVSLSENQKIVLESLNTAMSARELMEILNLSDISHFRRNILNPLLLEGLIVRTKPDKPKSSKQKYIKANF,-0.354
10,HMSFNGTILSNYQKTYPNLAKFTYDQANDALVYEGNFIKLNGYGLSRIDPVFFNMNPDEIFIFIKNG,-2.69
11,HMKLEKKWIEAVEKYRRYVLSTGIKHVQKPIEFENFRLGQWYADVRQSYRRGTLSKEKLLEIREINPDFPN,0.324
12,HMAVSNWQKLVSSIQTQLKILALYHGPEDGIYGPNTRSAIMLYEENIGLPVTGEPSRELLAHMLDQTD,-0.194
13,HMNHLSYEQRLKIKEMLDGGFKKIDIARALGVHNATIYREIERGSVNGIYNPNKSEEQYRDHLSEK,0.0704
14,HMEETLEELGKEYESAFTMYEKLWSYYKKQNYHQVNHKRSERYEILLGFVREYHPEKVEYYRELL,-0.482
15,HMTARYQQVEDYIVRRIQDGSWPPGHRLPSEHELVQQFGMSRMTVNRALRDLMQKGRIVRVAGVGSFVAQD,0.22
16,HMPDLQDTLYRLVPEDGSAIGNQSLREKFLSTAKDASDADFEAARDGLVEQGKLTKGKGRGGSVRRAEP,0.397
17,HMSDPVDDLLLRISQQAGVARGQLVAELNMLVQDRFGGNLRHEAAAVLMAKRYGIEFRDLLPALREHLVKN,-0.469
18,HMSDLLYAHPTEKGFQLVNVTQKVVMVILKTAAPNVYTVKGKNAIVFKEGNSWFYSENHNKKLLNIK,-0.1
19,HMDNMTEMQKAVTALIEKSGGSIDNLSVIYDHLKKKYPSFDLKDYGYSRFSSFLRSMENIMVRGNAVTLRS,0.0508
20,HMDFTHFTLKQDGKFAGSSNLLHQAVIAAARLAAETGKPVTVMAHVRGGGTRKAVFNPDGTNDKIWN,-0.0338
21,HMTTVSINTTGIITASTIRASSALYPPLYTTVQRDAGTFSAGAIIFNSTTSKLEFYDGTTWQSLPG,0.285
22,HMGYINLNVKVSPEWRDFWRSAYASVVAGYHQNKEHWNTIILDGSIPDKDIKRMIAESYDLVSD,-0.662
23,HMYSQEEKRYMEIMEIKPQELSAENLKKQYKKLVKKYHPDLHQDDKQAAEEKFKQLTNAYQVLMRRF,-0.0526
24,HMDFNDPTMEKSLVELPAMSNSTLRDLSENNIKKLEELAEMSVGELMDIASKISESDASALIMEARKPWF,-0.741
25,HMHGSSSTVPPVKGLSFEQARLTLAENDLTVEISDSIYDRNARPGTVVESWPRAGSVVKQGRQVYVTVTAF,-0.685

row,Sequence,soluble fraction (log2)
1,HMDTVIAEVTASILNLRRSAGTSSDIIGKLNKGEKVSIIGGSGNWKNVRTSGGITGWVYHEYLSTY,-0.183
2,HMDEKLAHKLVSDFRQAAASLERFPFRNPVLRSEVFTVEKYRKLVFDKYHILLYQVKDQVVYVEYVIDGRQ,≥ 0.43
3,HMVVVLPGETIKIDLIREGKDKQALGYLEDGTMIVVDNAKHLIGKNVEIEIDNVLPKEAGRVIFASLHGA,-0.942
4,HMEISNWLEEIGLSRYTETLSEFPLEDLVEFTDDDFKELGVLTPHRKKLLAAIATLNNDASSN,-1.12
5,HMTDGYAMRLERLNSLEEYVLNKGTVSLEDLAERFGVSINTIRRDLNELISRGQIKKVYGGVSSLHD,-0.245
6,HMEDELFSVARAAFPEYASKIHMNYGSTVQSIARQSGVLTVSETKQLNENQQISYLEYSNGAVVLALA,-0.306
7,HMIKKAILPVAGLGTRFLPASKSIPKEMVTVVDRPAIEYVVREAVEAGIEQIILVTHSSKASIENYFDR,-0.217
8,HMQQSVSSLVRRYMLQTIPGINFSLKSTALALNMSDRTLQRKLLSENTSYQIILDDVRKELAIKYLKE,-0.43
9,HMPEDQISYTDLIKQINDGNVEKIKMTVGSTTIKVNLKEQEEPKTAIVPSTQAFIELVQEKVQDGNEITLI,-0.39
10,HMKKVKVPNVVGMSLKEARDALSAVNIAVNQVAGSVEDKSVVTEQSLKAGDEVDEGSSLNLTTEYK,0.412
11,HMAGATDTVRNLLERQIREGELLPGQRLPTEPELAARLGVSRNSLREALQSLEDSGLIVKRHGIGTFVTE,0.22
12,HMTSMTHLGRHPDSEISLDDISVSRRHAEIERQGHEYVLRDSGSLNGTYVNQQRVDSVVLQQGDEIL,-0.277
13,HMNKIGTIVSINGPIVKTAGDVGFVMHEMVYVGKEKLVGEVIGLTTDFTIVEVYEETSGIKPGETIEGT,0.00293
14,HMAIDLPVTTVNGKDYYYYDVQPKETIFSLSQRLGISREEIISYNPGVDGGLKAYTRLYFPVESGL,-0.0117
15,HMTLDEFTDLMNLFKTGHIEQKPVILYGYNYWTSLKSWFEFNNMKFPEMYIDGIINTVDEFKILYNKIF,-0.77
16,HMLSKEERRSQLLDLGVRLLSTRSLDELSIDLLAEEAGISRGLLYHYFGNKHDFHEAVVRRAADDLI,-1.12
17,HMQMGLNEAYRVLHVSPDAPWREVQSAYKERMAKSHPDKVSHLGEELQEKAKELTVEINKAYNTIKRYKK,-0.0378
18,HMPLLKIGAQGHDVRVVQEALQRAGYAIEGVTGIFDEATREAVLAFQRDQQLTESGTVDRATWHALRR,-0.52
19,HMANLDSLIKKVGQYAKDKQSISVDGIKKDLSIDKDMVKEALAELLKIGVVDKPDEAGQYKVIM,0.0802
20,HMIRQETYLLVRKAVGALPVQMRKIIELAMQGKKNAEIAAQLSISEGTVHTLKKTAYKKLRDRLQE,-0.32
21,HMLQIADEYLDRLQALFEDVRDNHFAIGDLLVELVDMHDSRRVDVINYIAGRLAISPTTLYDYENTARR,-0.966
22,HMEQYFEDEELNDKFLEFLAMRKRVRKPVQTDRGMKMLLTSLHKLSGGDVGLMKQIIDQSLDNEWKKFVA,-1.12
23,HMAADWTAIKLAYVNGGMSMRELAQRFHVGAAGLMKRAAKEGWEAERQQNSAKVSNAAQMLIN,0.125
24,HMNTAIDGLIEKVGMFAMEKKAISVDQVKENFSINGEQAESVIKQLETIGVLGKKNEDGTHTVM,-0.0986
25,HMLTDAAAVKRSVRNLVQYGFYEKPFHPEIGSGVRDLLFENMTPFVANNLSKQIEEIITNYEPRA,-0.126
